Substitutions are numbered along the chain they refer to. Numbers in names are those of the source. Entries after “also recorded” stand apart in the source; their conditions may differ.
B1: TM2 K26A: TM2 mutant in which lysine at position 26 was replaced with alanine; SEQ ID NO: 4 (protein)
chain: MSDVQSSLTGTWYNELNSKMELTANADGTLTGKYLSKVGDVYVPYPLSGRYNLQPPAGQGVALGWAVSWENSKIHSATTWSGQFFSESSPVILTQWLLSSSTARGDVWESTLVGNDSFTKTAPTEQQIAHAQLHCRAPRLK
modifications: Synthetic TM2 K26A
B2: TM2 K73Q: TM2 mutant in which lysine at position 73 was replaced with glutamine; SEQ ID NO: 6 (protein)
chain: B1 chain with A26K, K73Q
modifications: Synthetic TM2 K73Q
B3: TM2 K33TK37A: TM2 mutant, lysine 33 replaced with threonine and lysine 37 with alanine; SEQ ID NO: 12 (protein)
chain: B1 chain with A26K, K33T, K37A
modifications: Synthetic TM2 K33TK37A
B4: TM2 K141E: TM2 mutant in which lysine at position 141 was replaced with glutamic acid; SEQ ID NO: 10 (protein)
chain: B1 chain with A26K, K141E
modifications: Synthetic TM2 K141E
B5: TM2 R104E: TM2 mutant in which arginine at position 104 was replaced with glutamic acid; SEQ ID NO: 8 (protein)
chain: B1 chain with A26K, R104E
modifications: Synthetic TM2 R104E
B6: TM2 K33TK37AR104E: TM2 mutant, lysine 33 to threonine, lysine 37 to alanine, arginine 104 to glutamic acid; SEQ ID NO: 14 (protein)
chain: B1 chain with A26K, K33T, K37A, R104E
modifications: Synthetic TM2 K33TK37AR104E
B7: TM2 D40N: TM2 mutant in which aspartic acid at position 40 was replaced with asparagine; SEQ ID NO: 20 (protein)
chain: B1 chain with A26K, D40N
modifications: Synthetic TM2 D40N
B8: TM2 K19T: TM2 mutant in which lysine at position 19 is replaced with threonine; SEQ ID NO: 18 (protein)
chain: B1 chain with K19T, A26K
modifications: Synthetic TM2 K19T

Tested on: not listed separately
Assay: Isoelectric focusing electrophoresis (pI observed)
Assay type: physicochemical
Settings: pH 3 to 10 gel
Method: The isoelectric point of each low-pI TM2 was measured by isoelectric focusing electrophoresis using an XCell SureLock Mini-Cell (Invitrogen). In accordance with the instruction, each low-pI TM2 (500 ng) and an IEF sample buffer (pH 3 to 10 (2×), Invitrogen) were mixed and were added to a polyacrylamide gel (pH 3 to 10, IEF Gel, Invitrogen) at a pH ranging from 3 to 10, followed by electrophoresis at a variable voltage of 100 V for 1 hour, 200 V for 1 hour, and 500 V for 45 minutes in this order.
After the electrophoresis, the gel was shaken in a blotting buffer (0.7% acetic acid) for 10 minutes and then was transferred onto a PVDF membrane at 10 V for 1 hour using an XCell ll Blot Module (Invitrogen). The PVDF membrane was subjected to reaction with anti-TM2 rabbit antibody (PCT/W2006/326260) serving as a primary antibody and with alkaline phosphate-labeled anti-rabbit IgG antibody (BIO-RAD) serving as a secondary antibody, followed by detection of bands with Alkaline Phosphatase Substrate Kit II
The isoelectric point of the high-affinity TM2 was measured by isoelectric focusing electrophoresis using an XCell SureLock Mini-Cell (Invitrogen). […] The electric point of TM2 D40N having replacement of the […] amino acid was higher than that of the wild type TM2 also in the isoelectric focusing electrophoresis.
The isoelectric point of HALU TM2 was measured by isoelectric focusing electrophoresis using an XCell SureLock Mini-Cell (Invitrogen). In accordance with the instruction, bands of each HALU TM2 (4 μg) were detected by CBB staining. […] The observed isoelectric point of TM2 D40N was 9.7, and was reduced to 8.9 after introduction of mutation of R104E and was reduced to 7.3 to 7.5 after further introduction of mutation of K141E.

Molecule	pI observed
B1	7.3 to 7.6
B2	7.7
B3	6.2
B4	6.6 to 7.2
B5	7.0 to 7.5
B6	5.9 to 6.0
B7	9.7
B8	6.6 to 7.5

Tested on: human serum protein
Assay: Non-specific adsorption of low-pI TM2 to human serum protein-immobilized magnetic beads
Assay type: binding
Settings: FIG. 1
Method: In this embodiment, non-specific binding to human serum was investigated as non-specific adsorption of low-pI TM2 to serum protein-immobilized magnetic beads. Specifically, in order to investigate the non-specific binding of low-pI TM2, the amount of low-pI TM2 adsorbed to magnetic beads to which human serum protein was covalently bonded was measured. TM2 K26A, TM2 K73Q, TM2 R104E, TM2 K141E, and TM2 R104EK141E, which were highly expressed in Escherichia coli, were used as the low-pI TM2 to be investigated.
Human serum protein and magnetic beads were bound to each other as follows. Magnetic beads having surfaces coated with carboxyl groups (Dynabeads M-270 Carboxylic Acid, Dynal, 210 μL) were washed with 0.01 N sodium hydroxide (210 μL) for 10 minutes and then with ultrapure water (210 μL) for 10 minutes three times. To the washed magnetic beads, 1-ethyl-3-(3-dimethylaminopropyl)carbodiimide hydrochloride (EDC, PIERCE) dissolved in cooled ultrapure water was added into a final concentration of 0.2 M, and the mixture was shaken at room temperature for 30 minutes. Then, the magnetic beads were washed with cooled ultrapure water (210 μL) and then with 50 mM MES buffer (pH 5.0, 210 μL).
To the magnetic beads, 1 mg/mL human serum protein (CHEMICON, 210 μL) dialyzed with 50 mM MES buffer (pH 5.0) was added. The mixture was shaken at room temperature for 30 minutes to covalently bind the human serum protein to the magnetic beads. The magnetic beads were collected with a magnet to remove the supernatant. The unreacted active groups on the beads were eliminated with 50 mM tris buffer (pH 7.0, 210 μL), and then the magnetic beads were blocked with a PBS buffer (420 μL) containing 0.5% BSA and 0.1% Tween 20. The magnetic beads were suspended in a PBS buffer (210 μL) to obtain human serum protein-immobilized magnetic beads.
The magnetic beads (7 μL) and 0.56 μg/mL of each low-pI TM2 (100 μL) were mixed for reaction at room temperature for 1 hour. The magnetic beads were collected with a magnetic, and the supernatant was removed. After washing with 20 mM potassium phosphate buffer (500 μL) containing 500 mM sodium chloride, the magnetic beads were mixed with 20 μL of 2×SDS sample buffer (250 mM Tris-HCl, pH 6.8, 20% 2-mercaptoethanol, 20% SDS, 20% glycerol), followed by heating at 95° C. for 20 minutes to dissociate the low-pI TM2 from the magnetic beads.
This sample was subjected to SDS-PAGE and then western blotting analysis to determine the amount of the low-pI TM2. Anti-tamavidin 2 rabbit antibody and alkaline phosphatase-labeled anti-rabbit IgG goat antibody were used as the primary antibody and the secondary antibody, respectively. The bands were detected with Alkaline Phosphatase Substrate Kit II <VECTOR Black> (VECTRO) and were quantified with Las-3000 (FUJIFILM).

non-specific binding to human serum protein compared to TM2	Molecule	decrease of adsorption to human serum protein compared to the wild type TM2 [%]
significantly low	B1	30
significantly low	B2	40
significantly low	B4	40
–	B5	10

Same assay, conditions: summary of Example 1, paragraphs 1-9) and 1-11)

non-specific binding and adsorption, % of that of the wild type TM2	Molecule
about 60%	B1
about 60%	B2
about 60%	B4

Same assay, conditions: wild type TM2 = 100

Non-specific binding of serum protein (%)	Molecule
68	B1
55	B2
58	B4
90	B5

Tested on: not listed separately
Assay: Biotin-binding test (Biacore 3000, biotin-LC-BSA immobilized)
Settings: not given
Method: High-purity BSA (Sigma, 2 mg) and NHS-LC-biotin (Pierce, 1 mg) were dissolved in 50 mM sodium borate (pH 8.0, 1 mL) and were incubated at 4° C. for 2 hours. The solution was put into a dialysis tube (MWCO 6-8,000) and was dialyzed with 50 mM sodium carbonate (pH 6.7) at 4° C. overnight. The resulting biotin-LC-BSA conjugate (MW: 67 kDa, 30 μM) was used as a ligand for a Biacore (registered trademark) biosensor.
Biotin-LC-BSA and BSA serving as a negative control were immobilized on CM5 sensor chips by amine coupling method. The amount for immobilization was adjusted to about 200 RU. The chips to which BSA was immobilized were disposed in flow cells 1 and 3, while the chips to which biotin-LC-BSA was immobilized were disposed in flow cells 2 and 4.
Accordingly, seven step measurement (3.125, 6.25, […], 25, 50, 100, and 200 nM) was conducted from the lowest concentration, without recycling steps. The data of BSA as reference was deducted from the data of BSA-LC-biotin. The measurement was performed at 25° C. The resulting sensorgrams were subjected to reaction kinetics analysis using analysis software BIAevaluation ver. 4.1 with a 1:1 binding model to calculate the binding rate constant (ka) and the dissociation rate constant (kd). The dissociation constant (KD) was determined from kd/ka. In the case where no recycling step is employed, the Rmax (maximum amount of binding analyte) decreases at each measurement. Accordingly, in the analysis, the Rmax was calculated by conducting local fitting for each concentration, and only the data of analyte concentrations that were approximated to the 1:1 binding model was employed.
TM2 and HALU TM2 used as analytes were prepared by purification with 2-iminobiotin agarose in accordance with a common method and dialysis with 20MM KPi (pH 7) overnight. The analytes were each adjusted to about 50 μg/mL in 10 mM acetate buffer (pH 5, Biacore).
The immobilization of the ligand and measurement and analysis of specific interaction with the analytes were conducted as in paragraph 2-7-2).

biotin-binding ability (affinity) compared to the wild type TM2	Molecule
increased; also recorded: enhanced	B7

Same assay, conditions: dissociation monitored for 60 minutes

dissociation from biotin-LC-BSA	Molecule
not dissociated	B7

Tested on: not listed separately
Assay: Heat stability of protein structure (soluble protein after heating, SDS-PAGE)
Assay type: physicochemical
Settings: heated for 20 minutes
Method: 3-8) Heat Stability of HALU TM2 Protein Structure Each of 0.2 μg/μL TM2 mutant solutions (10 μL (2 μg)) was heated at room temperature, 50, 60, 70, 80, 90, or 99° C. for 20 minutes. Then, the solution was centrifuged at 15000 rpm for 10 minutes, and the soluble protein in the supernatant was suspended in the same volume of 2×SDS sample buffer (250 mM Tris-HCl, pH 6.8, 20% 2-mercaptoethanol, 20% SDS, 20% glycerol). The suspension was heated at 95° C. for 10 minutes, followed by SDS-PAGE. The protein bands were detected by CBB staining A standard curve was prepared using a quantitative marker (LMW ELECTROPHORESIS CALIBRATION KIT; Pharmacia Biotech) with Las-3000 (FUJIFILM) to quantify the protein bands.

Molecule	Thermal stability (temp. at which 50% of protein was lost) [°C]
streptavidin [reference compound]	70
